# In article PMC8602292, “Acyl carrier protein promotes MukBEF action in Escherichia coli chromosome organization-segregation” (Nature Communications, 2021):
# T1: MukB^KRK (K1114E, R1122E and K1125E) (Escherichia coli, UniProt P22523 1-1486, K1114E | R1122E | K1125E)
# T1 construct: E. coli MukB, triple charge-reversed mutant; source: E. coli FL01 (mukB 3xFLAG C3013I), purified (TALON, HiTrap Heparin, Superdex 200); not shown: His tag, C-terminal, kept
# T1 sequence (looked up): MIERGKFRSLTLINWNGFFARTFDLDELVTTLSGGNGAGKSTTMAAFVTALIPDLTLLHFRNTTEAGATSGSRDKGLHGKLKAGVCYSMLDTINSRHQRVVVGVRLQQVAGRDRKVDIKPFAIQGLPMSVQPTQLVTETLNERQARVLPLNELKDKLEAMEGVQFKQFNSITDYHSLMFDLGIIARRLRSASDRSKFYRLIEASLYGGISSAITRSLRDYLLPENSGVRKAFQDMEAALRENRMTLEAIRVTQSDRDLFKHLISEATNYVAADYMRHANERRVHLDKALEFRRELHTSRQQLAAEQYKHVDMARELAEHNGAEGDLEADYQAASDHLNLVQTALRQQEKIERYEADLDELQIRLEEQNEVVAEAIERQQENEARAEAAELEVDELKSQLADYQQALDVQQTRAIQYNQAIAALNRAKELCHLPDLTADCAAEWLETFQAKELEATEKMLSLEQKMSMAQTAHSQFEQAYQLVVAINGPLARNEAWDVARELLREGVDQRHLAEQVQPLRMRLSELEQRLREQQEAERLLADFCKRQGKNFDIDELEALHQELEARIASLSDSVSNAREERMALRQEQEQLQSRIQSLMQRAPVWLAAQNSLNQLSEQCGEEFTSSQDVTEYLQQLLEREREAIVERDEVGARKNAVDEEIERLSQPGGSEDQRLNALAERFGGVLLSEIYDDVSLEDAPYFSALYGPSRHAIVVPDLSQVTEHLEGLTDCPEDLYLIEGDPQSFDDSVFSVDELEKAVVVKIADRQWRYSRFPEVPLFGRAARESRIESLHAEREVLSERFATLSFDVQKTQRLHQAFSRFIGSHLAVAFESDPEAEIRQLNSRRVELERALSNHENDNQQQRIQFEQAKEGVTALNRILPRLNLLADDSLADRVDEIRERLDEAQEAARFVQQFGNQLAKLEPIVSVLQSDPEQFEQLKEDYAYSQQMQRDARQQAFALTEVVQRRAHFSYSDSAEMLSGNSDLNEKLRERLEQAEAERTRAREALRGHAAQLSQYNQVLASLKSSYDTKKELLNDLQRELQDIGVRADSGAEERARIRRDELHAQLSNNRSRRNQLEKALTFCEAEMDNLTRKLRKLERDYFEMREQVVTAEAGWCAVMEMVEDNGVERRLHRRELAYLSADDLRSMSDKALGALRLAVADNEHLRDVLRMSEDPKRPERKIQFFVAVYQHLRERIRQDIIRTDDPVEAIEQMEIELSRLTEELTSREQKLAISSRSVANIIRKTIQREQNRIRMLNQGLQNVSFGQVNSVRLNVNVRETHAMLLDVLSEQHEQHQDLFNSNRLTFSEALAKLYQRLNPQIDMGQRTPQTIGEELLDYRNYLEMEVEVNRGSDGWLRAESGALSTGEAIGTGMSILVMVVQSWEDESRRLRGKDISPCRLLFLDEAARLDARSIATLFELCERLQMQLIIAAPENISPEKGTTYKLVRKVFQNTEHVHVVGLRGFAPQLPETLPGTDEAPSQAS
# B1: MukE (MukE-His) (natural protein, Escherichia coli, UniProt P22524 1-234, looked up)
# chain: MSSTNIEQVMPVKLAQALANPLFPALDSALRSGRHIGLDELDNHAFLMDFQEYLEEFYARYNVELIRAPEGFFYLRPRSTTLIPRSVLSELDMMVGKILCYLYLSPERLANEGIFTQQELYDELLTLADEAKLLKLVNNRSTGSDVDRQKLQEKVRSSLNRLRRLGMVWFMGHDSSKFRITESVFRFGADVRAGDDPREAQRRLIRDGEAMPIENHLQLNDETEENQPDSGEEE
# notes: MukE, the KITE protein of Escherichia coli MukBEF; The end of the tag is read from the printed name 'MukE-His'; also called KITE protein MukE; source: E. coli C3013I (NEB), pET vector, purified (TALON, HiTrap DEAE FF, Superdex 200)
# B2: MukF (His-MukF) (natural protein, Escherichia coli, UniProt P60293 1-440, looked up)
# chain: MSEFSQTVPELVAWARKNDFSISLPVDRLSFLLAVATLNGERLDGEMSEGELVDAFRHVSDAFEQTSETIGVRANNAINDMVRQRLLNRFTSEQAEGNAIYRLTPLGIGITDYYIRQREFSTLRLSMQLSIVAGELKRAADAAEEGGDEFHWHRNVYAPLKYSVAEIFDSIDLTQRLMDEQQQQVKDDIAQLLNKDWRAAISSCELLLSETSGTLRELQDTLEAAGDKLQANLLRIQDATMTHDDLHFVDRLVFDLQSKLDRIISWGQQSIDLWIGYDRHVHKFIRTAIDMDKNRVFAQRLRQSVQTYFDEPWALTYANADRLLDMRDEEMALRDEEVTGELPEDLEYEEFNEIREQLAAIIEEQLAVYKTRQVPLDLGLVVREYLSQYPRARHFDVARIVIDQAVRLGVAQADFTGLPAKWQPINDYGAKVQAHVIDKY
# notes: MukF, the kleisin of Escherichia coli MukBEF; The end of the tag is read from the printed name 'His-MukF'; also called kleisin MukF; source: E. coli C3013I (NEB), pET vector, purified (TALON, HiTrap DEAE FF, Superdex 200)
# Target: T1, MukB^KRK (K1114E, R1122E and K1125E)
# Assay: native gel or EMSA; BN-PAGE; MukB or MukB^HN (0-4.5 μM) with MukF (1.5 μM), MukE (3 μM) and AcpP as indicated or none; 1 mM DTT, 1 mM MgCl2, 30 min at 22 °C; 3-12% native Bis-Tris gels; AMPPNP in some samples
# Details: both partners purified
row,Binder,binding result
1,B1,binds
2,B2,binds
